In patent US20090118184A1 (UNIVERSITY OF ROCHESTER, published 2009):

T1: factor VIIIa A1/A3C1C2 dimer, Glu1984Val (human, UniProt P00451 20-391; P00451 1709-2351)
T1 sequence 1: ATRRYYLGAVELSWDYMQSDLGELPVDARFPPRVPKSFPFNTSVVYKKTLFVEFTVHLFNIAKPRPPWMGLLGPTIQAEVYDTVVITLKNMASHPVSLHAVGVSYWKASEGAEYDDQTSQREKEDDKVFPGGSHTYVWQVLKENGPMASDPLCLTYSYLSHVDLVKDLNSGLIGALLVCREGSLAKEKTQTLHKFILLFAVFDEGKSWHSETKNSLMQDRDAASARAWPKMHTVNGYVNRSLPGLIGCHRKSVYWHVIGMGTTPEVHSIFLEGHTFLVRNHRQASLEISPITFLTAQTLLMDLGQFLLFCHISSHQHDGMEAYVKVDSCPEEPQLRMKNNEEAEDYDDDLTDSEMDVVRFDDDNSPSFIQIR
T1 sequence 2: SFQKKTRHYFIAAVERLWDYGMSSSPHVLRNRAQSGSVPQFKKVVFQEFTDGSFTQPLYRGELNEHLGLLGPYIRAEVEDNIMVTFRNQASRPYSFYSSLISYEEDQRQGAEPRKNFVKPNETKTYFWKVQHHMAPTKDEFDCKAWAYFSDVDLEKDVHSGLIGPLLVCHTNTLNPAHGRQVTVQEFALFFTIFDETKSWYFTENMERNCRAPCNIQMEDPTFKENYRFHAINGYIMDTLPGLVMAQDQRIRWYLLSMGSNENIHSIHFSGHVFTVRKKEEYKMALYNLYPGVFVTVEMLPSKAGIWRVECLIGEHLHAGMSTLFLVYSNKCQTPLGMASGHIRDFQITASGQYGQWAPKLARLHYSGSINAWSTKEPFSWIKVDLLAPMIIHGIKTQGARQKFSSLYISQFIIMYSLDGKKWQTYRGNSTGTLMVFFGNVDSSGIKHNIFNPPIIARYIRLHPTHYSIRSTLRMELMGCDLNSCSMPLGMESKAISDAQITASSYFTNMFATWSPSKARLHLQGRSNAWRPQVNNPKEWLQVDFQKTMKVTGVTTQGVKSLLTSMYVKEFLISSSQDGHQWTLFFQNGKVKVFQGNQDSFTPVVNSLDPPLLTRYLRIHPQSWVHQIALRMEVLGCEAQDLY

T2: factor VIIIa A1/A3C1C2 dimer, wild type (human, UniProt P00451 20-391; P00451 1709-2351)
T2 sequence 1: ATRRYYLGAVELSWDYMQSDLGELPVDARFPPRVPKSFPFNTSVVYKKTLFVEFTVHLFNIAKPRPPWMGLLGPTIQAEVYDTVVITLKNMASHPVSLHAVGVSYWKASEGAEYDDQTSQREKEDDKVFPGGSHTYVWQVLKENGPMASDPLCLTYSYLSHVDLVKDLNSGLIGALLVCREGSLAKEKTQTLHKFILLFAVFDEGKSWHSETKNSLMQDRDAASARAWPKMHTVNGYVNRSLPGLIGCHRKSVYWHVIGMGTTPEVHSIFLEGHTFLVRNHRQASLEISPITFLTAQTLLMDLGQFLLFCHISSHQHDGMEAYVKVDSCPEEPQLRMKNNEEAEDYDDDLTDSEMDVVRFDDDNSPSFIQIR
T2 sequence 2: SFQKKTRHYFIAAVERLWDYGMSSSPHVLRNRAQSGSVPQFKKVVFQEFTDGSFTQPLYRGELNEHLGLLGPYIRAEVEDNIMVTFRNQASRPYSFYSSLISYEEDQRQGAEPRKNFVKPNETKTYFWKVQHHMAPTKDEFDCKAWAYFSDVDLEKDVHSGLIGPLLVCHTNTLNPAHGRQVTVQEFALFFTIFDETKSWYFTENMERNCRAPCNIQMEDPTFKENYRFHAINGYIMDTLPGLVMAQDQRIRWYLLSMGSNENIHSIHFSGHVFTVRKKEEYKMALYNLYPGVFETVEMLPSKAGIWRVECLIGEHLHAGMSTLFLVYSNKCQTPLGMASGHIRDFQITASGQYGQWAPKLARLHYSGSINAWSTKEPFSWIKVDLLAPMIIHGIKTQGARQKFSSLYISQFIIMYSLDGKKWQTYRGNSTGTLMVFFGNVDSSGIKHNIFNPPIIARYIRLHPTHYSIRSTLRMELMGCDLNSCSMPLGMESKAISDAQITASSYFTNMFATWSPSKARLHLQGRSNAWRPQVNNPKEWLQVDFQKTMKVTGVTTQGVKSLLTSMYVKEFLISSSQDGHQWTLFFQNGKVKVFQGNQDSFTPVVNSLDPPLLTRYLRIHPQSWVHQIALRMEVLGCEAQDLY

T3: factor VIIIa A1/A3C1C2 dimer, Glu1984Ala (human, UniProt P00451 20-391; P00451 1709-2351)
T3 sequence 1: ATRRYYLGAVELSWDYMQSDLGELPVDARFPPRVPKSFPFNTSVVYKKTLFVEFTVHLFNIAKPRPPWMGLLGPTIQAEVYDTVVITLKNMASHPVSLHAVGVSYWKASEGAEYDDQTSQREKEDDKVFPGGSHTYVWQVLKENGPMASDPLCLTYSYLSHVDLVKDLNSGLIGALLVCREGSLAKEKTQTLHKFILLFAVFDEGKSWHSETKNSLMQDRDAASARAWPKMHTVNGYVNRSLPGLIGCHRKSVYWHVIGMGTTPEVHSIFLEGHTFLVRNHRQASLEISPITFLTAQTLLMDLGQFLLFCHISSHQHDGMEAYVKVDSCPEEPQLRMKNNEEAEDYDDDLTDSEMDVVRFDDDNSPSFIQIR
T3 sequence 2: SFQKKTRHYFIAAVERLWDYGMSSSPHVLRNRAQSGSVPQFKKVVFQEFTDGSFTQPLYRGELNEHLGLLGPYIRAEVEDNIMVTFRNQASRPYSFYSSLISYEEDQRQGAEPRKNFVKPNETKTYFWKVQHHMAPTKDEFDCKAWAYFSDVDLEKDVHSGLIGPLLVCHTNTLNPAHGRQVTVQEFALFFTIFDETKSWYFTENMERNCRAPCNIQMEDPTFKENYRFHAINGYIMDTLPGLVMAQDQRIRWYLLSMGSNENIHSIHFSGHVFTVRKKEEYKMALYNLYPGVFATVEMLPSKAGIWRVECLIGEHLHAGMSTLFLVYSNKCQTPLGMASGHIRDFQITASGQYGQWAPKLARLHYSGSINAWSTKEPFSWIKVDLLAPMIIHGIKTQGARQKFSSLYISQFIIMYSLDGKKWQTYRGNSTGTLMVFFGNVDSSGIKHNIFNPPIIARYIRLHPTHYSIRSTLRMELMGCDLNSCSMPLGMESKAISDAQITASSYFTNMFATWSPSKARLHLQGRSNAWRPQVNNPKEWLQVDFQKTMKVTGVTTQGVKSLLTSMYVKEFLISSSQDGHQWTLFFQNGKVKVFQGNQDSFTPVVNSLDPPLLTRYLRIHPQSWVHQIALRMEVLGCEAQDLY

T4: factor VIIIa A1/A3C1C2 dimer, Glu113Ala (human, UniProt P00451 20-391; P00451 1709-2351)
T4 chain 1: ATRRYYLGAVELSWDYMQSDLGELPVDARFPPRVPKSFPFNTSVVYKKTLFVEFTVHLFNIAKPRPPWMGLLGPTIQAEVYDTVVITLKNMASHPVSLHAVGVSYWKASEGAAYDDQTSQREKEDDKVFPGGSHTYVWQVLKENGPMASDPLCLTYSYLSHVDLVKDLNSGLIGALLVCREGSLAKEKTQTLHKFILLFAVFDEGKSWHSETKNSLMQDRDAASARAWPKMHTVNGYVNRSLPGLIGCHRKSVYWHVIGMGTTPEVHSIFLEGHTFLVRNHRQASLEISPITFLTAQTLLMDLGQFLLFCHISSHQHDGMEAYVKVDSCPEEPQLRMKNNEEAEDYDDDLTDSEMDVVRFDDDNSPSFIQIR
T4 chain 2: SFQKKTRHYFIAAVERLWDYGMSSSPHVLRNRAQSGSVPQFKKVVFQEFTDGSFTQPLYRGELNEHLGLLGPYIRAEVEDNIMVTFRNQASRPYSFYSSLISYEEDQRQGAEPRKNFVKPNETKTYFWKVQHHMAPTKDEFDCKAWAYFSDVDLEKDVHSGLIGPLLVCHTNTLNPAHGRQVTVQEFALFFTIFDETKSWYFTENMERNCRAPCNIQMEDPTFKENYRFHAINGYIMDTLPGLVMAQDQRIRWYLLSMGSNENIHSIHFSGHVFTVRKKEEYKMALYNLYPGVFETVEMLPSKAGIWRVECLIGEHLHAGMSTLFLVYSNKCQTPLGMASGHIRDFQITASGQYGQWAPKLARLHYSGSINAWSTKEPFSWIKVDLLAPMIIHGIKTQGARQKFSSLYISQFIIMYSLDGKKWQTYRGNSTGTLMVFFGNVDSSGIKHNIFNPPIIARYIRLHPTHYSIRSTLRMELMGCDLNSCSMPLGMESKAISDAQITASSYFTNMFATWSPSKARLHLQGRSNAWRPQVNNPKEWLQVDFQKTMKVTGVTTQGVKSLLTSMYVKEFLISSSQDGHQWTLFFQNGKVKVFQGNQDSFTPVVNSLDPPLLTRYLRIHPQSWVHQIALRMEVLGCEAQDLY


Key:
Assay in all cases: cell-based or functional assay
[1] = target: T1, factor VIIIa A1/A3C1C2 dimer, Glu1984Val
[2] = target: T2, factor VIIIa A1/A3C1C2 dimer, wild type
[3] = target: T3, factor VIIIa A1/A3C1C2 dimer, Glu1984Ala
[4] = target: T2, factor VIIIa A1/A3C1C2 dimer, wild type; remark: listed apart in the source
[5] = target: T4, factor VIIIa A1/A3C1C2 dimer, Glu113Ala

Decay rate relative to wild type, Factor VIIIa (1.5 nM, factor IXa absent) [1] | Decay rate, Factor VIIIa (1.5 nM factor VIIIa, factor IXa absent) [1] [min⁻¹] | Decay rate relative to wild type, Factor VIIIa (1.5 nM, factor IXa absent) [2] | Decay rate, Factor VIIIa (1.5 nM factor VIIIa, factor IXa absent) [2] [min⁻¹] | Decay rate relative to wild type, Factor VIIIa (1.5 nM, factor IXa absent) [3] | Decay rate, Factor VIIIa (1.5 nM factor VIIIa, factor IXa absent) [3] [min⁻¹] | Factor VIIIa Decay relative to the WT value, Factor IXa absent [4] | Factor VIIIa Decay relative to the WT value, Factor IXa present [4] | Factor VIIIa Decay, Factor IXa absent [4] [min⁻¹] | Factor VIIIa Decay, Factor IXa present [4] [min⁻¹] | Decay rate relative to wild type, Factor VIIIa (1.5 nM, factor IXa absent) [5] | Decay rate, Factor VIIIa (1.5 nM factor VIIIa, factor IXa absent) [5] [min⁻¹] | Binder
0.48 relative to wild type | 0.0671 | 0.28 relative to wild type | 0.0395 | 0.26 relative to wild type | 0.036 | 0.19 relative to WT | 0.34 relative to WT | 0.016 | 0.0052 | 0.24 relative to wild type | 0.0333 | factor VIIIa A2 subunit, Glu665Val (other) SVAKKHPKTWVHYIAAEEEDWDYAPLVLAPDDRSYKSQYLNNGPQRIGRKYKKVRFMAYTDETFKTREAIQHESGILGPLLYGEVGDTLLIIFKNQASRPYNIYPHGITDVRPLYSRRLPKGVKHLKDFPILPGEIFKYKWTVTVEDGPTKSDPRCLTRYYSSFVNMERDLASGLIGPLLICYKESVDQRGNQIMSDKRNVILFSVFDENRSWYLTENIQRFLPNPAGVQLEDPEFQASNIMHSINGYVFDSLQLSVCLHEVAYWYILSIGAQTDFLSVFFSGYTFKHKMVYVDTLTLFPFSGETVFMSMENPGLWILGCHNSDFRNRGMTALLKVSSCDKNTGDYYEDSYEDISAYLLSKNNAIEPR
0.19 relative to wild type | 0.0262 | 0.6 relative to wild type | 0.0836 | 0.12 relative to wild type | 0.0168 | 0.77 relative to WT | 0.44 relative to WT | 0.0642 | 0.0068 | 0.35 relative to wild type | 0.0495 | factor VIIIa A2 subunit, Asp519Val (other) SVAKKHPKTWVHYIAAEEEDWDYAPLVLAPDDRSYKSQYLNNGPQRIGRKYKKVRFMAYTDETFKTREAIQHESGILGPLLYGEVGDTLLIIFKNQASRPYNIYPHGITDVRPLYSRRLPKGVKHLKDFPILPGEIFKYKWTVTVEVGPTKSDPRCLTRYYSSFVNMERDLASGLIGPLLICYKESVDQRGNQIMSDKRNVILFSVFDENRSWYLTENIQRFLPNPAGVQLEDPEFQASNIMHSINGYVFDSLQLSVCLHEVAYWYILSIGAQTDFLSVFFSGYTFKHKMVYEDTLTLFPFSGETVFMSMENPGLWILGCHNSDFRNRGMTALLKVSSCDKNTGDYYEDSYEDISAYLLSKNNAIEPR
